These are literature values, as cited in publication PMC3625564.

The data set addresses Endocan (Homo sapiens) (UniProt Q9NQ30). Put plainly: biosensor.
Sequence of UniProt Q9NQ30 (Q9NQ30 20-184): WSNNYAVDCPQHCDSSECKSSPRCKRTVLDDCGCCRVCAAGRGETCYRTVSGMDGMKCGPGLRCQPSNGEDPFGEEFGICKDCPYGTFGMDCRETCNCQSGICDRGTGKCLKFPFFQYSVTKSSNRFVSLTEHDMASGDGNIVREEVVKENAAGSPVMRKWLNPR

Usually Kd stands for the free concentration of one partner at which half of the binding sites on the other are occupied at equilibrium, for simple one-to-one binding. As for HGF (from UniProt P14210), the Kd is 4.5 nM.
